Non-standard residues stand in square brackets, D forms with d. No end group written: not given here. pY = N[C@@H](Cc1ccc(OP(=O)(O)O)cc1)C(=O)O
Biological target: STAT3 with DNA-binding activity in vitro (activated STAT3 dimers)
Test: cell-based or functional assay

Binder | IC50, Disruption of STAT3 DNA-binding Activity
Ac-[pY]-Leu-Lys [Ac-Y*LK (SEQ ID NO:31)] | 421 µM
A[pY]LK [AY*LK (SEQ ID NO:30)] | 365 µM
Ac-P[pY]LKTK [Ac-PY*LKTK (SEQ ID NO:32)] | 212 µM
Ac-P[pY]LK [Ac-PY*LK (SEQ ID NO:34)] | 156 µM
P[pY]LA [PY*LA (SEQ ID NO:35)] | 326 µM
P[pY]LKTK [PY*LKTK (SEQ ID NO:20)] | 280 µM

Reference: patent US20070060521A1 (UNIVERSITY OF SOUTH FLORIDA A PUBLIC CORPORATION OF THE …, published 2007)
